# Results: US20060263802A1 (CRUCELL HOLLAND B V, published 2006)
# B1: human monoclonal antibody CRJB (antibody, V domains shown)
# VH: QITLKETGPTLVKPTQTLTLTCTFSGFSLSTSGVGVGWIRQPPGKALEWVTLIYWDDDKRYSPSLENRVTIRKDTSKNQVALTMTNMDPLDTGTYYCAHRQHISSFPWFDSWGQGTLVTVSS
# VL: SYVLTQPPSVSVAPGKTARINCGGNNIEYRSVHWYQQKSGQAPVAVIYDNSDRPSGIPERFSGSKSGNTATLTISRVEAGDEADYYCQVWDISSDVVFGGGTKLTVLG
# Tests used:
# Test in all cases: PEPSCAN ELISA, looped peptide, 10 ug/ml
# [1] = biological target: looped/cyclic peptide … (rabies virus strain ERA)
# [2] = biological target: looped/cyclic peptide … (rabies virus strain ERA); remark: listed apart in the source
# [3] = biological target: looped/cyclic peptide … (rabies virus strain ERA); remark: listed apart in the source
# [4] = biological target: looped/cyclic peptide … (rabies virus strain ERA); remark: listed apart in the source
# [5] = biological target: looped/cyclic peptide ADPSTVFKDGDEAED (rabies virus strain ERA)
# [6] = biological target: looped/cyclic peptide … (rabies virus strain ERA); remark: listed apart in the source
# [7] = biological target: looped/cyclic peptide … (rabies virus strain ERA); remark: listed apart in the source
# [8] = biological target: looped/cyclic peptide … (rabies virus strain ERA); remark: listed apart in the source
# [9] = biological target: looped/cyclic peptide … (rabies virus strain ERA); remark: listed apart in the source
# [10] = biological target: looped/cyclic peptide … (rabies virus strain ERA); remark: listed apart in the source
# [11] = biological target: looped/cyclic peptide … (rabies virus strain ERA); remark: listed apart in the source
# [12] = biological target: looped/cyclic peptide … (rabies virus strain ERA); remark: listed apart in the source
# [13] = biological target: looped/cyclic peptide … (rabies virus strain ERA); remark: listed apart in the source
# [14] = biological target: looped/cyclic peptide … (rabies virus strain ERA); remark: listed apart in the source
# [15] = biological target: looped/cyclic peptide … (rabies virus strain ERA); remark: listed apart in the source
# [16] = biological target: looped/cyclic peptide … (rabies virus strain ERA); remark: listed apart in the source
# [17] = biological target: looped/cyclic peptide … (rabies virus strain ERA); remark: listed apart in the source
# [18] = biological target: looped/cyclic peptide … (rabies virus strain ERA); remark: listed apart in the source
# [19] = biological target: looped/cyclic peptide … (rabies virus strain ERA); remark: listed apart in the source
# [20] = biological target: looped/cyclic peptide … (rabies virus strain ERA); remark: listed apart in the source
# [21] = biological target: looped/cyclic peptide … (rabies virus strain ERA); remark: listed apart in the source
# [22] = biological target: looped/cyclic peptide … (rabies virus strain ERA); remark: listed apart in the source
# [23] = biological target: looped/cyclic peptide … (rabies virus strain ERA); remark: listed apart in the source
# [24] = biological target: looped/cyclic peptide … (rabies virus strain ERA); remark: listed apart in the source
# [25] = biological target: looped/cyclic peptide … (rabies virus strain ERA); remark: listed apart in the source
# [26] = biological target: looped/cyclic peptide … (rabies virus strain ERA); remark: listed apart in the source
# [27] = biological target: looped/cyclic peptide … (rabies virus strain ERA); remark: listed apart in the source
# [28] = biological target: looped/cyclic peptide … (rabies virus strain ERA); remark: listed apart in the source
# [29] = biological target: looped/cyclic peptide … (rabies virus strain ERA); remark: listed apart in the source
# [30] = biological target: looped/cyclic peptide … (rabies virus strain ERA); remark: listed apart in the source
# [31] = biological target: looped/cyclic peptide … (rabies virus strain ERA); remark: listed apart in the source
# [32] = biological target: looped/cyclic peptide … (rabies virus strain ERA); remark: listed apart in the source
# [33] = biological target: looped/cyclic peptide … (rabies virus strain ERA); remark: listed apart in the source
# [34] = biological target: looped/cyclic peptide … (rabies virus strain ERA); remark: listed apart in the source
# [35] = biological target: looped/cyclic peptide … (rabies virus strain ERA); remark: listed apart in the source
# [36] = biological target: looped/cyclic peptide … (rabies virus strain ERA); remark: listed apart in the source
# [37] = biological target: looped/cyclic peptide … (rabies virus strain ERA); remark: listed apart in the source
# [38] = biological target: looped/cyclic peptide … (rabies virus strain ERA); remark: listed apart in the source
# [39] = biological target: looped/cyclic peptide … (rabies virus strain ERA); remark: listed apart in the source
# [40] = biological target: looped/cyclic peptide … (rabies virus strain ERA); remark: listed apart in the source
# [41] = biological target: looped/cyclic peptide … (rabies virus strain ERA); remark: listed apart in the source
# [42] = biological target: looped/cyclic peptide … (rabies virus strain ERA); remark: listed apart in the source
# [43] = biological target: looped/cyclic peptide … (rabies virus strain ERA); remark: listed apart in the source
# [44] = biological target: looped/cyclic peptide … (rabies virus strain ERA); remark: listed apart in the source
# [45] = biological target: looped/cyclic peptide … (rabies virus strain ERA); remark: listed apart in the source
# [46] = biological target: looped/cyclic peptide … (rabies virus strain ERA); remark: listed apart in the source
# [47] = biological target: looped/cyclic peptide … (rabies virus strain ERA); remark: listed apart in the source
# [48] = biological target: looped/cyclic peptide … (rabies virus strain ERA); remark: listed apart in the source
# [49] = biological target: looped/cyclic peptide … (rabies virus strain ERA); remark: listed apart in the source
# [50] = biological target: looped/cyclic peptide … (rabies virus strain ERA); remark: listed apart in the source
# [51] = biological target: looped/cyclic peptide … (rabies virus strain ERA); remark: listed apart in the source
# [52] = biological target: looped/cyclic peptide … (rabies virus strain ERA); remark: listed apart in the source
# [53] = biological target: looped/cyclic peptide … (rabies virus strain ERA); remark: listed apart in the source
# [54] = biological target: looped/cyclic peptide … (rabies virus strain ERA); remark: listed apart in the source
# [55] = biological target: looped/cyclic peptide … (rabies virus strain ERA); remark: listed apart in the source
# [56] = biological target: looped/cyclic peptide … (rabies virus strain ERA); remark: listed apart in the source
# [57] = biological target: looped/cyclic peptide … (rabies virus strain ERA); remark: listed apart in the source
# [58] = biological target: looped/cyclic peptide … (rabies virus strain ERA); remark: listed apart in the source
# [59] = biological target: looped/cyclic peptide … (rabies virus strain ERA); remark: listed apart in the source
# [60] = biological target: looped/cyclic peptide … (rabies virus strain ERA); remark: listed apart in the source
# [61] = biological target: looped/cyclic peptide … (rabies virus strain ERA); remark: listed apart in the source
binder,measurement,setting,value
B1,OD,[1],58 OD
same,OD,[2],93 OD
same,OD,[3],97 OD
same,OD,[4],90 OD
same,OD,[5],72 OD
same,OD,[6],110 OD
same,OD,[7],101 OD
same,OD,[8],93 OD
same,OD,[9],90 OD
same,OD,[10],80 OD
same,OD,[11],42 OD
same,OD,[12],71 OD
same,OD,[13],102 OD
same,OD,[14],87 OD
same,OD,[15],104 OD
same,OD,[16],93 OD
same,OD,[17],90 OD
same,OD,[18],89 OD
same,OD,[19],92 OD
same,OD,[20],101 OD
same,OD,[21],104 OD
same,OD,[22],79 OD
same,OD,[23],107 OD
same,OD,[24],94 OD
same,OD,[25],93 OD
same,OD,[26],118 OD
same,OD,[27],104 OD
same,OD,[28],113 OD
same,OD,[29],106 OD
same,OD,[30],100 OD
same,OD,[31],83 OD
same,OD,[32],78 OD
same,OD,[33],100 OD
same,OD,[34],92 OD
same,OD,[35],78 OD
same,OD,[36],79 OD
same,OD,[37],91 OD
same,OD,[38],86 OD
same,OD,[39],129 OD
same,OD,[40],97 OD
same,OD,[41],97 OD
same,OD,[42],87 OD
same,OD,[43],72 OD
same,OD,[44],86 OD
same,OD,[45],76 OD
same,OD,[46],82 OD
same,OD,[47],100 OD
same,OD,[48],106 OD
same,OD,[49],101 OD
same,OD,[50],94 OD
same,OD,[51],104 OD
same,OD,[52],147 OD
same,OD,[53],98 OD
same,OD,[54],93 OD
same,OD,[55],113 OD
same,OD,[56],98 OD
same,OD,[57],111 OD
same,OD,[58],123 OD
same,OD,[59],97 OD
same,OD,[60],91 OD
same,OD,[61],85 OD
